What all share (assay): pull-down; 2 µg of each GST-, HIS- or MBP-tagged protein mixed in 50 mM Tris-HCl pH 7.4, 150 mM NaCl, 25 mM imidazole, 0.5% NP-40, 4 °C 4 h; HIS-tagged protein captured on Ni-NTA HIS Bind Resin; western blot
Holding throughout (details): both partners purified
(In general: In western blotting, separated proteins are transferred to a membrane and probed.)

One test has as its target T1, SUMO-HIS-RMF1 (Arabidopsis thaliana, UniProt Q9M365 1-359).
T1 construct: RMF1, F-box protein, Arabidopsis thaliana, AGI AT3G61730; CDS cloned into pSUMO (on pET28a); also called AT3G61730; not shown: SUMO, N-terminal, kept; HIS, N-terminal, kept
T1 sequence (looked up): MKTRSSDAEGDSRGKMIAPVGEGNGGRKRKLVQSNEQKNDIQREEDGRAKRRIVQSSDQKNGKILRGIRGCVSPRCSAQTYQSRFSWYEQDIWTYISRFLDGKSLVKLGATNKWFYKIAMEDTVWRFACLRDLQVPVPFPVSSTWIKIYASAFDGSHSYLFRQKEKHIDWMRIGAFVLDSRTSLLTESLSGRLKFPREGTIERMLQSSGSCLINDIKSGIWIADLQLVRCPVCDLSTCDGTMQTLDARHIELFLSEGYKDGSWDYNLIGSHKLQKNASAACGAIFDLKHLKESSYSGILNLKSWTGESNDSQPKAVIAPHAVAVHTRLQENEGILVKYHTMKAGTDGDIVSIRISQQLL

A further test deals with T2, SUMO-HIS-RMF2 (Arabidopsis thaliana, UniProt Q9FGB8 1-355).
T2 construct: RMF2, F-box protein, Arabidopsis thaliana, AGI AT5G36000; CDS cloned into pSUMO (on pET28a); also called AT5G36000; not shown: SUMO, N-terminal, kept; HIS, N-terminal, kept
T2 sequence (looked up): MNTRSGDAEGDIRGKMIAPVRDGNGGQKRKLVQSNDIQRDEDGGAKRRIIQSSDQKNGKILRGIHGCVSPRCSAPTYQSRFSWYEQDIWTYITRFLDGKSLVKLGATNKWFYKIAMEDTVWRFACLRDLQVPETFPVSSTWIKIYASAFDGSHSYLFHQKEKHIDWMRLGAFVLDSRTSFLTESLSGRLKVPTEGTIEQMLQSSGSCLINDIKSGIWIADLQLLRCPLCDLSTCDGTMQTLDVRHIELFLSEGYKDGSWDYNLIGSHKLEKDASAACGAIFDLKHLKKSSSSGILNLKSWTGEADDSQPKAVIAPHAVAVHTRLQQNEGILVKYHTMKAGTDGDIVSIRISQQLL

The target in the next test is T3, MBP-RMF1 (Arabidopsis thaliana, UniProt Q9M365 1-359).
T3 construct: RMF1, F-box protein, Arabidopsis thaliana, AGI AT3G61730; CDS cloned into pMAL-c5X; also called AT3G61730; source: E. coli Rosetta (DE3) or BL21 (DE3) pLysS, purified (Amylose Resin); not shown: MBP, N-terminal, kept
T3 sequence (looked up): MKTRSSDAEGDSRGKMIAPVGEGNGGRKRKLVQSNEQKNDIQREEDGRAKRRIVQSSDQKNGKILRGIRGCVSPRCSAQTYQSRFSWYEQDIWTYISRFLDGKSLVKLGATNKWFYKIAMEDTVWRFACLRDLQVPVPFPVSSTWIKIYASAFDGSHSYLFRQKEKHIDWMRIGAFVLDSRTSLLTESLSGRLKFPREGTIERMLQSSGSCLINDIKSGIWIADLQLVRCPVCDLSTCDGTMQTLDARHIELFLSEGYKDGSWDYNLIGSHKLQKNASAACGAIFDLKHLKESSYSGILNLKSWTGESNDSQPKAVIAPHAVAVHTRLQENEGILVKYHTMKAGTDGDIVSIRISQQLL

Another test deals with T4, MBP-RMF2 (Arabidopsis thaliana, UniProt Q9FGB8 1-355).
T4 construct: RMF2, F-box protein, Arabidopsis thaliana, AGI AT5G36000; CDS cloned into pMAL-c5X; also called AT5G36000; source: E. coli Rosetta (DE3) or BL21 (DE3) pLysS, purified (Amylose Resin); not shown: MBP, N-terminal, kept
T4 sequence (looked up): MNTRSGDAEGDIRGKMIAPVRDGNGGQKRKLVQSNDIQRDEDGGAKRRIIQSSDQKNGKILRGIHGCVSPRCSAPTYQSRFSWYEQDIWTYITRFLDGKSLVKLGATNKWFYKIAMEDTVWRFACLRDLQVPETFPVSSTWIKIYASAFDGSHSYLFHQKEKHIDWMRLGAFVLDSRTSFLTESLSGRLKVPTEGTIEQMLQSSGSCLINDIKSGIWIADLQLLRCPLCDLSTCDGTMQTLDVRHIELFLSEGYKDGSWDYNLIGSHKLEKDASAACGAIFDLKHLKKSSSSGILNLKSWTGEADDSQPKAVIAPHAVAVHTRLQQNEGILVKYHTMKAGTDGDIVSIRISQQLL

B1: GST-ASK1 (natural protein, Arabidopsis thaliana, UniProt Q39255 1-160, looked up)
chain: MSAKKIVLKSSDGESFEVEEAVALESQTIAHMVEDDCVDNGVPLPNVTSKILAKVIEYCKRHVEAAASKAEAVEGAATSDDDLKAWDADFMKIDQATLFELILAANYLNIKNLLDLTCQTVADMIKGKTPEEIRTTFNIKNDFTPEEEEEVRRENQWAFE
notes: ASK1 (Arabidopsis Skp1-like1), Arabidopsis thaliana, AGI AT1G75950; CDS cloned into pGEX 4T-1; also called AT1G75950; not shown: GST, N-terminal, kept
As for B1, the binding result in the test with SUMO-HIS-RMF1 and with SUMO-HIS-RMF2 was “binds” each time.

B2: SUMO-HIS-DMC1 (natural protein, Arabidopsis thaliana, UniProt Q39009 1-344, looked up)
chain: MMASLKAEETSQMQLVEREENDEDEDLFEMIDKLIAQGINAGDVKKLQEAGIHTCNGLMMHTKKNLTGIKGLSEAKVDKICEAAEKIVNFGYMTGSDALIKRKSVVKITTGCQALDDLLGGGIETSAITEAFGEFRSGKTQLAHTLCVTTQLPTNMKGGNGKVAYIDTEGTFRPDRIVPIAERFGMDPGAVLDNIIYARAYTYEHQYNLLLGLAAKMSEEPFRILIVDSIIALFRVDFTGRGELADRQQKLAQMLSRLIKIAEEFNVAVYMTNQVIADPGGGMFISDPKKPAGGHVLAHAATIRLLFRKGKGDTRVCKVYDAPNLAEAEASFQITQGGIADAKD
notes: DMC1, meiosis-specific RecA-family recombinase, Arabidopsis thaliana, AGI At3G22880; CDS cloned into pSUMO (on pET28a); also called At3G22880; not shown: SUMO, N-terminal, kept; HIS, N-terminal, kept
In the case of B2, the binding result with MBP-RMF1 and with MBP-RMF2 was “binds” throughout.

B3: SUMO-HIS-DMC1-6KR (natural protein, Arabidopsis thaliana, UniProt Q39009 1-344, looked up)
chain: MMASLKAEETSQMQLVEREENDEDEDLFEMIDKLIAQGINAGDVRRLQEAGIHTCNGLMMHTKKNLTGIRGLSEAKVDKICEAAEKIVNFGYMTGSDALIRRKSVVKITTGCQALDDLLGGGIETSAITEAFGEFRSGKTQLAHTLCVTTQLPTNMKGGNGRVAYIDTEGTFRPDRIVPIAERFGMDPGAVLDNIIYARAYTYEHQYNLLLGLAAKMSEEPFRILIVDSIIALFRVDFTGRGELADRQQKLAQMLSRLIKIAEEFNVAVYMTNQVIADPGGGMFISDPKRPAGGHVLAHAATIRLLFRKGKGDTRVCKVYDAPNLAEAEASFQITQGGIADAKD
notes: DMC1, Arabidopsis thaliana, AGI At3G22880; CDS with all six lysines K45, K46, K70, K101, K162 and K290 changed to arginine, cloned into pSUMO (on pET28a); not shown: SUMO, N-terminal, kept; HIS, N-terminal, kept
As for B3, the binding result in the test with MBP-RMF1 and with MBP-RMF2 was “binds” in each case.

For the origin of these results see article PMC10439943, “SCF^RMF mediates degradation of the meiosis-specific recombinase DMC1” (Nature Communications, 2023).
